Values of other authors, collected in patent US10195287B2, “Biologically active insulin derivatives” (Chemical & Biopharmaceutical Laboratories of Patras S.A., priority 2013, dated 2019).

Molecular target: human receptor (Homo sapiens, UniProt P06213)
Conditions: compared with human insulin

| Substance | activity on the human receptor |
| --- | --- |
| bovine insulin: animal insulin that varies from human insulin by three amino acids | approximately the same strength |
| Porcine insulin: animal insulin with a single amino acid variation from the human variety | approximately the same strength |
